The values that follow come from US20260216366A1, “CONJUGATE AND USES THEREOF” (Full-Life Technologies UK Limited, priority 2022, published 2026).

Data set [1] can be described thus: Pharmacokinetic study of CLDN18.2-linker conjugates (serum ELISA, NCA). Format: in vivo, BALB/c mice. The note with it: FIG. 2; CLDN18.2 conjugate of the named linker compared to the control group. As for the experimental part:
The in vivo pharmacokinetic profile of the CLDN18.2-linker conjugates was analyzed. Briefly, BALB/c mice were administered with the conjugates by intravenous injection at a dose of about 1 mg/kg. Then, whole blood of the animal was collected at different time points over 48 hours.
The whole blood was collected into a tube without anticoagulation and maintained at room temperature for more than 30 minutes, followed by centrifuge at approximately 5000 rpm at 4° C. for 5 minutes to obtain serum. Concentration of the conjugates in serum was then measured by ELISA using HRP-labeled goat anti-alpaca IgG VHH domain secondary antibody. The data was further analyzed using PK Solver software, and the […] (NCA) was used to evaluate the pharmacokinetic parameters, as shown in Table 7 and FIG. 2.
Background: In an ELISA, binding on a coated surface is turned into a signal by an enzyme label.

In another data set the test system is CLDN18.2 HEK293T cells. Description: In vivo SPECT imaging of 111In-labeled CLDN18.2 conjugates. Details: species or system female athymic nude mice. The note with it: FIG. 4, 10 MBq/mouse i.v., over 48 hours, compared to the control group. As for the experimental part:
In vivo biodistribution of the CLDN18.2 conjugates was analyzed by SPECT imaging via ^111In labeling. Briefly, the CLDN18.2 conjugates were labeled by ^111In at 30° C. for 60 min and purification by NAP-5 column. followed by analysis of radioactive purity through radio-TLC and radio-HPLC on the same day of labelling. The release criteria for radio-labelled sample was ≥90% radiochemical purity.
For the imaging study, female athymic nude mice (approximately 6-8 weeks old) were each inoculated with 5×10^6 CLDN18.2 HEK293T cells via subcutaneous injection into the shoulder. When the tumor volume reached to about 200 to 300 mm^3, the animal was injected with the labeled conjugate at a dose of 10 MBq/mouse by a single bolus intravenous injection in tail vein. Animals were then subject to whole-body static SPECT followed by CT at different time points under isoflurane anaesthesia. […] In addition, the tumor/kidney ratio was increased around 5-10 folds compared to the control group.

A short description of data set [2]: Pharmacokinetic study of FAP-linker conjugates (serum ELISA, NCA). Format: in vivo, BALB/c mice. The note with it: FIG. 3; FAP conjugate of the named linker compared to the control group. As for the experimental part: he in vivo pharmacokinetic profile of the FAP-linker conjugates was analyzed. Briefly, BALB/c mice were administered with the conjugates by intravenous injection at a dose of about 1 mg/kg. Then, whole blood of the animal was collected at different time periods over 48 hours.
The whole blood was collected into a tube without anticoagulation and maintained at room temperature for more than 30 minutes, followed by centrifugated at approximately 5000 rpm at 4° C. for 5 minutes to obtain serum. Concentration of the conjugates in serum was then measured by ELISA using HRP-labeled goat anti-alpaca IgG VHH domain secondary antibody. The data was further analyzed using PK Solver software, and the […] (NCA) was used to evaluate the pharmacokinetic parameters, as shown in Table 8 and FIG. 3.

Data set [3] deals with FAP expressing HEK293-hFAP cells. The data set is described as follows: In vivo SPECT imaging of 177Lu-labeled FAP conjugates. Details: species or system female athymic nude mice. The settings on record: FIG. 5, 30 MBq/mouse i.v., at different time points. Here is the method:
In vivo biodistribution of FAP conjugates was analyzed by SPECT imaging via ^177Lu labeling. Briefly, the FAP conjugates were labeled by ^177Lu with a molar activity of 1 MBq/μg at 37° C. for 60 min and purified by size-exclusion chromatography, followed by analysis of radioactive purity through radio-TLC and radio-HPLC on the same day of labelling. The release criteria for radio-labelled sample was ≥90% radiochemical purity.
For the imaging study, female athymic nude mice (approximately 6-8 weeks old) were each inoculated with 5×10^6 FAP expressing HEK293-hFAP cells via subcutaneous injection into the shoulder. When the tumor volume reached to about 150 to 250 mm^3, the animal was injected with the labeled conjugate at a dose of 30 MBq/mouse by a single bolus intravenous injection in tail vein. Animals were then subject to whole-body static SPECT followed by CT at different time points under isoflurane anaesthesia.

The target of the next data set is T1, human FAP-hFc (human, UniProt Q12884 26-760).
T1 construct: Coated on the ELISA plate as human FAP-hFc; also called FAP-alpha; not shown: human Fc (hFc)
T1 sequence (looked up): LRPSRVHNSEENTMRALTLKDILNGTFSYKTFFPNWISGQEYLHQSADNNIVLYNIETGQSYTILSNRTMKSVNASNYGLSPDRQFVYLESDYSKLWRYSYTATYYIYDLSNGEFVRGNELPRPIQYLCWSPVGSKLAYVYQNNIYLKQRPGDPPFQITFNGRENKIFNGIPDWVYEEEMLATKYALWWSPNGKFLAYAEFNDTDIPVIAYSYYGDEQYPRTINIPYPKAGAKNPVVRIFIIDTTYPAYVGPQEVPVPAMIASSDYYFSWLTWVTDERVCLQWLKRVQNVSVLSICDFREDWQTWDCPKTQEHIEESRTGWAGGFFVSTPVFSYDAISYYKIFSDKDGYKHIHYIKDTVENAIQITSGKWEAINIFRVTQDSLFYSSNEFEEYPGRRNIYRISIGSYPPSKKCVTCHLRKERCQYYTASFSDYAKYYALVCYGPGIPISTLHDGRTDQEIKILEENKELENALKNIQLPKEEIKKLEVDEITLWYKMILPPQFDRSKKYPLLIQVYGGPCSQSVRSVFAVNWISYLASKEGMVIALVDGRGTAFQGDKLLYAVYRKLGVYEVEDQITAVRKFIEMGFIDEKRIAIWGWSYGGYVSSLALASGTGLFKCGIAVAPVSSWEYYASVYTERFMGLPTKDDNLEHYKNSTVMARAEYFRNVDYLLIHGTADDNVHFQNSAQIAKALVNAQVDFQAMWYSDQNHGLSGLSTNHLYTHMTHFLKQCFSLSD
The data set is described as follows: ELISA, plate coated with human FAP-hFc, HRP anti-sdAb detection. As for the experimental part: (§1) Binding affinities of the prepared conjugates with tumor antigen was evaluated by ELISA. […] On the next day, the plate was washed by 0.05% PBST and blocked by 10% StartingBlock buffer (Thermo, #37538) at room temperature for 1 hr. Then, 100 μL of serial diluted conjugate samples in 1% StartingBlock buffer was added to the plate. The plate was further incubated at room temperature for 2 hrs under shaking at 100 rpm and washed by 0.05% PBST. Then 100 μL 0.4 μg/mL HRP-conjugated anti-sdAb secondary antibody (Jackson, #128-035-232) was added and subject to 1 hr incubation at room temperature under shaking at 100 rpm. The plate was then washed by 0.05% PBST and developed using TMB solution (KPL, #5120-00820).

The next data set has as its target T2, human Claudin 18.2-VLP (human, UniProt P56856-2 1-261).
T2 construct: also called CLDN18.2
T2 sequence (looked up): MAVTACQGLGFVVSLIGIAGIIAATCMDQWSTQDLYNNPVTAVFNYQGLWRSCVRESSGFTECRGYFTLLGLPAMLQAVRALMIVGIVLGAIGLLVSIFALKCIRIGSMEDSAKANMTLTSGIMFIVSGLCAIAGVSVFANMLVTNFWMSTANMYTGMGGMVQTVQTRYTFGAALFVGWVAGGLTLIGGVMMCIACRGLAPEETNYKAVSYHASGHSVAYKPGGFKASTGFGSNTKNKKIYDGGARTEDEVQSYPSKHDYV
Description: ELISA, plate coated with human Claudin 18.2-VLP, HRP anti-sdAb detection. As for the experimental part:
as §1

As to `O=C(O)CN1CCN(CC(=O)O)CCN(C(CCC(=O)NCC(=O)NC(CCCCNC(=O)CCCc2ccc(I)cc2)C(=O)NCc2ccc(N=C=S)cc2)C(=O)O)CCN(CC(=O)O)CC1` (stereo not shown) [L009], the “blood circulation of the CLDN18.2 conjugates” value in data set [1] was “significantly prolonged blood circulation”. Further, in the data set on CLDN18.2 HEK293T cells, the “retention of the CLDN18.2 conjugates in tumor” value is reported as “significantly increased retention”. Turning to `O=C(O)CCC(NC(=O)C(CCCCNC(=O)CCCc1ccc(I)cc1)NC(=O)CNC(=O)CCC(C(=O)O)N1CCN(CC(=O)O)CCN(CC(=O)O)CCN(CC(=O)O)CC1)C(=O)NCc1ccc(N=C=S)cc1` (stereo not shown) [L007], in data set [1], the “blood circulation of the CLDN18.2 conjugates” value is recorded as “significantly prolonged blood circulation”. Further, in data set [2], the “blood circulation of the FAP conjugates” value is listed as “significantly prolonged blood circulation”. In the data set on CLDN18.2 HEK293T cells, the “retention of the CLDN18.2 conjugates in tumor” value is recorded as “significantly increased retention”. For the same molecule, the “retention of the FAP conjugates in tumor” value in data set [3] is recorded as “increasing retention”.

B1: FAP-L007 (VHH)
VHH: QVQLLESGGGLVQPGGSLRLSCAASGFGFGNSLMSWVRRAPGKGLEWVSTIYPRGSFTDYADSVKGRFTISRDNSRNTLYLQMNSLRAEDTAVYYCATGWGRSSDYDPPGQGTLVTVSS
modifications: functional linker L007 conjugated to the sdAb, residue not stated; DOL 0.68
notes: also called FAP sdAb-linker L007 conjugate
As a reminder, the EC50 is the concentration giving half of the maximal effect. Lower therefore signals higher potency in that assay. In turn, B1 returned a concentration giving a half-maximal response (EC50) in the data set with human FAP-hFc of 0.0603 nM.

B2: FAP-DOTAGA (VHH)
VHH: QVQLLESGGGLVQPGGSLRLSCAASGFGFGNSLMSWVRRAPGKGLEWVSTIYPRGSFTDYADSVKGRFTISRDNSRNTLYLQMNSLRAEDTAVYYCATGWGRSSDYDPPGQGTLVTVSS
modifications: DOTAGA chelator conjugated to the sdAb, residue not stated; DOL 0.42
notes: also called FAP sdAb conjugated with DOTAGA (control)
As to B2, the half-maximal effective concentration (EC50) with human FAP-hFc worked out at 0.0553 nM.

B3: CLDN18.2-DOTAGA (VHH)
VHH: EVQLVESGGGLVQPGGSLRLSCAASGSFFRIVAMGWYRQAPGSQRELVATITRGGSTYYADSVKGRFTISRDNAKNTLYLQMNSLRAEDTAVYYCNVRVEVPFMQPNDYWGQGTLVTVSS
modifications: DOTAGA chelator conjugated to the sdAb, residue not stated; DOL 1.23
notes: also called CLDN18.2 sdAb conjugated with DOTAGA
The molecule B3 showed a concentration for a half-maximal effect (EC50) in the data set with human Claudin 18.2-VLP of 0.84 nM.

B4: CLDN18.2-L004 (VHH)
VHH: EVQLVESGGGLVQPGGSLRLSCAASGSFFRIVAMGWYRQAPGSQRELVATITRGGSTYYADSVKGRFTISRDNAKNTLYLQMNSLRAEDTAVYYCNVRVEVPFMQPNDYWGQGTLVTVSS
modifications: functional linker L004 conjugated to the sdAb, residue not stated; DOL 1.37
notes: also called CLDN18.2 sdAb-linker L004 conjugate
The molecule B4 displayed an EC50 with human Claudin 18.2-VLP of 3.47 nM.

B5: CLDN18.2-L012 (VHH)
VHH: EVQLVESGGGLVQPGGSLRLSCAASGSFFRIVAMGWYRQAPGSQRELVATITRGGSTYYADSVKGRFTISRDNAKNTLYLQMNSLRAEDTAVYYCNVRVEVPFMQPNDYWGQGTLVTVSS
modifications: functional linker L012 conjugated to the sdAb, residue not stated; DOL 1.65
notes: also called CLDN18.2 sdAb-linker L012 conjugate
The molecule B5 had an EC50 with human Claudin 18.2-VLP of 1.93 nM.

B6: CLDN18.2-L010 (VHH)
VHH: EVQLVESGGGLVQPGGSLRLSCAASGSFFRIVAMGWYRQAPGSQRELVATITRGGSTYYADSVKGRFTISRDNAKNTLYLQMNSLRAEDTAVYYCNVRVEVPFMQPNDYWGQGTLVTVSS
modifications: functional linker L010 conjugated to the sdAb, residue not stated; DOL 1.54
notes: also called CLDN18.2 sdAb-linker L010 conjugate; linker 010 conjugate
B6 gave an EC50 with human Claudin 18.2-VLP of 2.31 nM.

B7: CLDN18.2-L007 (VHH)
VHH: EVQLVESGGGLVQPGGSLRLSCAASGSFFRIVAMGWYRQAPGSQRELVATITRGGSTYYADSVKGRFTISRDNAKNTLYLQMNSLRAEDTAVYYCNVRVEVPFMQPNDYWGQGTLVTVSS
modifications: functional linker L007 conjugated to the sdAb, residue not stated; DOL 1.69
notes: also called CLDN18.2 sdAb-linker L007 conjugate; linker 007 conjugate
Take B7: the midpoint of the response with human Claudin 18.2-VLP, the EC50, lay at 7.41 nM.

B8: CLDN18.2-L009 (VHH)
VHH: EVQLVESGGGLVQPGGSLRLSCAASGSFFRIVAMGWYRQAPGSQRELVATITRGGSTYYADSVKGRFTISRDNAKNTLYLQMNSLRAEDTAVYYCNVRVEVPFMQPNDYWGQGTLVTVSS
modifications: functional linker L009 conjugated to the sdAb, residue not stated; DOL 1.77
notes: also called CLDN18.2 sdAb-linker L009 conjugate; linker 009 conjugate
B8 came in with an EC50 with human Claudin 18.2-VLP of 3.11 nM.

B9: CLDN18.2-L002 (VHH)
VHH: EVQLVESGGGLVQPGGSLRLSCAASGSFFRIVAMGWYRQAPGSQRELVATITRGGSTYYADSVKGRFTISRDNAKNTLYLQMNSLRAEDTAVYYCNVRVEVPFMQPNDYWGQGTLVTVSS
modifications: functional linker L002 conjugated to the sdAb, residue not stated; DOL 1.18
notes: also called CLDN18.2 sdAb-linker L002 conjugate
In the data set with human Claudin 18.2-VLP, B9 gave an EC50 of 2.18 nM.

B10: CLDN18.2-L001 (VHH)
VHH: EVQLVESGGGLVQPGGSLRLSCAASGSFFRIVAMGWYRQAPGSQRELVATITRGGSTYYADSVKGRFTISRDNAKNTLYLQMNSLRAEDTAVYYCNVRVEVPFMQPNDYWGQGTLVTVSS
modifications: functional linker L001 conjugated to the sdAb, residue not stated; DOL 1.13
notes: also called CLDN18.2 sdAb-linker L001 conjugate
In the data set with human Claudin 18.2-VLP, B10 came in with an EC50 of 1.75 nM. The EC50 values of the last two molecules are within 1.5-fold of each other.
